The series deals with the molecule itself. As to the kind of experiment: cross-linking; lysates of transfected HEK293 cells (50 mM HEPES, 150 mM NaCl, 0.5% Triton X-100) incubated with 2 mM disuccinimidyl suberate (DSS) for 30 min at room temperature, quenched with 50 mM Tris-HCl; immunoblot with anti-Flag; 6PGD alone or with HDAC7, N-HDAC7, C-HDAC7 or SOX7. A general note: Immunoblotting shows a protein as a band on a membrane.

B1: 6-phosphogluconate dehydrogenase (6PGD), Flag-tagged (enzyme, mouse, UniProt Q9DCD0 1-483, looked up)
chain: MAQADIALIGLAVMGQNLILNMNDHGFVVCAFNRTVSKVDDFLANEAKGTKVVGAQSLKDMVSKLKKPRRVILLVKAGQAVDDFIEKLVPLLDTGDIIIDGGNSEYRDTTRRCRDLKAKGILFVGSGVSGGEEGARYGPSLMPGGNKEAWPHIKAIFQAIAAKVGTGEPCCDWVGDEGAGHFVKMVHNGIEYGDMQLICEAYHLMKDVLGMRHEEMAQAFEEWNKTELDSFLIEITANILKYRDTDGKELLPKIRDSAGQKGTGKWTAISALEYGMPVTLIGEAVFARCLSSLKEERVQASQKLKGPKVVQLEGSKKSFLEDIRKALYASKIISYAQGFMLLRQAATEFGWTLNYGGIALMWRGGCIIRSVFLGKIKDAFERNPELQNLLLDDFFKSAVDNCQDSWRRVISTGVQAGIPMPCFTTALSFYDGYRHEMLPANLIQAQRDYFGAHTYELLTKPGEFIHTNWTGHGGSVSSSSYNA
notes: mouse 6-phosphogluconate dehydrogenase (6PGD); A shorter ~40 kDa form (6PGD-s), also detected by anti-Flag, arises in the same cells; also called full-length 6PGD; source: HEK293, transfected (pCMV-based construct), in lysate
As a reminder, the stoichiometry N is a count of units in the complex or per binding partner. In the case of B1, the “stoichiometry N” value was 2.

These data come from article PMC11555707, “Histone deacetylase 7 activates 6-phosphogluconate dehydrogenase via an enzyme-independent mechanism that involves the N-terminal protein-protein interaction domain” (Biochemical Journal, 2024).
